Results from the supplement of paper PMC10724198.
± gives the standard deviation of the averaged measurements.

What follows are sequences tested on Saccharomyces cerevisiae (assay: protein stability index of tFT-peptide fusion (C-terminal peptide) (PSI (0-1 scale)); higher = more stable (slower turnover)). Details: genetic background: wild type; temperature: 30 C.
Protocol: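 Multiplexed protein stability (MPS) profiling in S. cerevisiae. Random 12-aa peptides (tFT-X12 library) are fused to the C-terminus of a sfGFP-mCherry tandem fluorescent timer, after mCherry and a GGGS linker. Cells are FACS-sorted into 8 mCherry/sfGFP bins and deep-sequenced. The protein stability index (PSI) is the read-weighted bin average, scaled from 0 (unstable) to 1 (stable). Only peptides with >10 reads are reported; cells were grown at 30 °C in SC-His with glucose.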
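Further: PSI is a weighted mean of sequencing reads over stability bins, variants kept only with over 10 reads, mCherry proximal and sfGFP distal, peptide attached via GGGS linker.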

Sequence | protein stability index
GRESGNPGEPTC | 0.678 ± 0.012
GRGGGVGLVVGG | 0.683 ± 0.019
GRGGLGWGEWDR | 0.699 ± 0.03
GRGSCVRISSEG | 0.706 ± 0.028
GRKQMKINDWNI | 0.636 ± 0.077
GRKWRTSCQCVS | 0.586 ± 0.026
GRLFGVVSLCLL | 0.647 ± 0.035
GRPRSSAVARSA | 0.769 ± 0.036
GRQILMLGYMVA | 0.548 ± 0.012
GRQRGGRENEGE | 0.673 ± 0.064
GRRFIPFSSFIR | 0.79 ± 0.096
GRRGPGRARRWG | 0.658 ± 0.037
GRRKGGRKAREC | 0.588 ± 0.017
GRRVAWGAQGLG | 0.602 ± 0.046
GRTPGNALKRND | 0.632 ± 0.03
GRVAPNANAVKF | 0.607 ± 0.07
GRVEDAFSGGGI | 0.643 ± 0.089
GRVRYRGSRFLG | 0.656 ± 0.013
GRVSSTRKVGAI | 0.678 ± 0.022
GRWGGRLSWAPG | 0.628 ± 0.03
GRWRCVYRGCGG | 0.646 ± 0.076
GRYAGFESRFGA | 0.666 ± 0.018
GRYCDKRLGIVG | 0.699 ± 0.011
GRYLRRDLVGVF | 0.606 ± 0.051
GRYRRRLPLCRG | 0.663 ± 0.055
GRYSGSFWSFWS | 0.719 ± 0.023

Sequence | protein stability index
GSARLPLWSLPP | 0.793 ± 0.0082
GSAVMLGVSVRV | 0.581 ± 0.043
GSCTPLPSIDFD | 0.648 ± 0.052
GSEAGEPRAGRA | 0.675 ± 0.015
GSGGVGVTSGGK | 0.682 ± 0.056
GSGLVTRTSLDY | 0.726 ± 0.045
GSGQPDPRDAIG | 0.677 ± 0.057
GSGTRNLLFIKS | 0.6708 ± 0.001
GSGWRSRRAPGP | 0.747 ± 0.047
GSIWVVGWGQGV | 0.711 ± 0.032
GSKVGGVGWRSG | 0.726 ± 0.0095
GSLGWRGLVRFF | 0.611 ± 0.013
GSLHGTSAPPRF | 0.731 ± 0.15
GSLPPCPSHAPF | 0.698 ± 0.061
GSMVRSDSFLRP | 0.66 ± 0.019
GSRRSGITSYAN | 0.687 ± 0.011
GSRVRGVMWSFL | 0.771 ± 0.067
GSSCRFGDNTVG | 0.738 ± 0.046
GSSDTYLLSLVD | 0.733 ± 0.052
GSSMLFIEQEVE | 0.683 ± 0.028
GSSPIDGLEVYG | 0.654 ± 0.041
GSSPRVFPPRFC | 0.725 ± 0.033
GSTLWGRAWGAR | 0.724 ± 0.02
GSVQHRRRDRCD | 0.676 ± 0.038
GSVRGFGGGGEE | 0.652 ± 0.049
GSWGWHVRGSGV | 0.598 ± 0.037

Sequence | protein stability index
GSYDLMGFQFFI | 0.632 ± 0.029
GTCQALARRTGD | 0.686 ± 0.061
GTCWAGAMGVVG | 0.714 ± 0.043
GTCWGGAMGVVG | 0.728 ± 0.042
GTDVFTQAVRNC | 0.641 ± 0.019
GTFCLFTPCVWM | 0.716 ± 0.044
GTKDRSNMIRKS | 0.6702 ± 0.0044
GTKGGPSGLEPP | 0.7125 ± 0.0018
GTLLRINLMTIQ | 0.663 ± 0.02
GTLYLRVTSKEK | 0.717 ± 0.044
GTPWHLRPRCPF | 0.749 ± 0.013
GTSCPCGGALRP | 0.776 ± 0.035
GTSSTPPPPAPP | 0.661 ± 0.016
GTWGGGGWSCES | 0.725 ± 0.076
GVAGGGTVVGAQ | 0.693 ± 0.017
GVARGFGVVVPA | 0.6427 ± 0.0044
GVAWGAGVGMMW | 0.732 ± 0.025
GVCWVTAGLWAI | 0.6098 ± 0.0021
GVGAPGARGVWG | 0.748 ± 0.048
GVGAWGGMCGVV | 0.724 ± 0.0082
GVGCGGGGSSCA | 0.703 ± 0.11
GVGGCRVRGLGA | 0.691 ± 0.017
GVGGENRRNGTV | 0.721 ± 0.11
GVGGGVMGVGRV | 0.665 ± 0.01
GVGQEGVGGRAV | 0.707 ± 0.03
GVGWGSSWVGYG | 0.898 ± 0.092

Sequence | protein stability index
GVIFRRFDVGLS | 0.682 ± 0.053
GVIGFNSLYGIA | 0.632 ± 0.027
GVLGCRWWGSMG | 0.657 ± 0.015
GVLPVDKFLKNW | 0.735 ± 0.098
GVLRDRAFLTCA | 0.618 ± 0.028
GVLVERLCGRGF | 0.702 ± 0.049
GVPLSGLVCPRP | 0.7103 ± 0.001
GVRGGRGQGWYR | 0.6373 ± 0.0018
GVRNISELSRLF | 0.644 ± 0.019
GVRSGAGGQVVG | 0.701 ± 0.038
GVSIGVLTGAWR | 0.646 ± 0.0015
GVVGLCLLGLGR | 0.701 ± 0.024
GVVRSAPEAASL | 0.573 ± 0.03
GVVVKDPGNAFL | 0.704 ± 0.029
GVVVRSCLMGFT | 0.619 ± 0.022
GVWGGRGQGWYR | 0.674 ± 0.0096
GVWLRTARRISK | 0.688 ± 0.037
GVWTPGPIWGRG | 0.7134 ± 0.00084
GVWVGAVRGRYG | 0.6625 ± 0.0061
GVYFMGVLGREG | 0.655 ± 0.067
GVYVGWFMRSGG | 0.678 ± 0.015
GWAGRCAPGRVG | 0.637 ± 0.093
GWCPNRRSGVWV | 0.7285 ± 0.0032
GWCVWGVFSTAL | 0.631 ± 0.033
GWEVGRGRLGVV | 0.696 ± 0.095
GWFVGLVSRSLH | 0.67 ± 0.019

Sequence | protein stability index
GWFVVYQIGSEV | 0.564 ± 0.063
GWGGGGGAGGSV | 0.683 ± 0.018
GWGGGGGAWKGV | 0.736 ± 0.072
GWGPGGSERCGL | 0.711 ± 0.025
GWLRGVCFCSWG | 0.73 ± 0.037
GWQCGVNRGGWW | 0.752 ± 0.057
GWSVGQSEMNTY | 0.73 ± 0.056
GWVFLRVARFGL | 0.684 ± 0.045
GWWCGGGGAWSG | 0.719 ± 0.041
GWWGCGGWGFVG | 0.624 ± 0.05
GYAGAIMAGYDP | 0.656 ± 0.033
GYATVILYPSID | 0.653 ± 0.029
GYDLSASRALLA | 0.65 ± 0.019
GYLNSCADKNKV | 0.664 ± 0.028
GYMFLSFLKLCW | 0.599 ± 0.021
GYPRPLPYTPST | 0.687 ± 0.023
GYPSLYCLSVFM | 0.6155 ± 0.0058
GYRGRDETNATN | 0.65 ± 0.025
GYRNIEYGFGSG | 0.575 ± 0.061
GYRVNIDIKIVY | 0.5247 ± 0.0031
GYVLVLGVKGGL | 0.648 ± 0.032
HAIPAPDLYHTQ | 0.651 ± 0.09
HAPAPPLPTIYP | 0.668 ± 0.094
HAPRSPCLPFPP | 0.687 ± 0.047
HASPPPDASPPL | 0.687 ± 0.022
HCVSPKPFLKSE | 0.695 ± 0.045

Sequence | protein stability index
HDQKVPRERRTR | 0.699 ± 0.025
HDRRKAFHVVWL | 0.663 ± 0.039
HDSMTQEPQNSA | 0.65 ± 0.065
HDSRIDIASFHV | 0.716 ± 0.024
HEDIPGSTYTIN | 0.734 ± 0.033
HFLSCVGSLWFH | 0.741 ± 0.0087
HGGCLGGYGGGG | 0.661 ± 0.036
HGLLLRDRPLPT | 0.665 ± 0.024
HGLVLLCINDIV | 0.6312 ± 0.001
HGSDTSIALRSG | 0.622 ± 0.038
HHHPGQKCKIKG | 0.731 ± 0.016
HHLPPRTPPHNS | 0.657 ± 0.037
HHQVVPDVSLVS | 0.6585 ± 0.0013
HHTQPLKSIKKN | 0.708 ± 0.037
HIFAQSFLNIRI | 0.709 ± 0.04
HIGVVSIERLTS | 0.576 ± 0.021
HIHKKGPSGHQK | 0.696 ± 0.028
HIPPPPRPSAPP | 0.69 ± 0.04
HLGRRSGAQGLF | 0.699 ± 0.06
HLPPFSGIHLTP | 0.719 ± 0.011
HLPPLHRLSPPI | 0.668 ± 0.04
HLPPPPSPPPPP | 0.68 ± 0.051
HLPPSSPPLAVI | 0.68 ± 0.009
HLPRRAAILNEF | 0.709 ± 0.049
HLPSPPPPPSRL | 0.744 ± 0.031
